Experiments:
006 PSMA Fab [1] = molecular target: T1, 006 PSMA Fab; assay: clonal phage ELISA on biotinylated PSMA Fab captured on neutravidin, anti-M13 HRP detection, no competitor
T1 construct: In the phage ELISA the Fab was biotinylated and captured on neutravidin coated plates; also called Anti-PSMA Fab
Description: (§1) Clonal phage were harvested as crude supernatants and screened via standard ELISAs. […] Prior to the addition of clonal phage. wells were incubated with blocking buffer and PSMA antigen or blocking buffer alone. Without washing or aspirating, clonal phage supernatants were then added to the wells and incubated for a short time. Wells were then washed followed by detection of bound phage using a horse radish conjugated anti-M13 antibody.

006 PSMA Fab [2] = molecular target: T1, 006 PSMA Fab; assay: clonal phage ELISA on biotinylated PSMA Fab captured on neutravidin, wells pre-incubated with PSMA antigen as competitor, anti-M13 HRP detection
Description: as §1

PSMA Fab (006 PSMA Fab) [3] = molecular target: T2, PSMA Fab (006 PSMA Fab) (Fab biotinylated for capture on neutravidin plates (site not stated)); assay: phage ELISA: clonal phage supernatant on biotinylated PSMA Fab captured on neutravidin plate, wells pre-incubated with PSMA antigen as competitor, anti-M13-HRP detection
T2 construct: also called Anti-PSMA Fab; anti-PSMA Fab

PSMA Fab (006 PSMA Fab) [4] = molecular target: T2, PSMA Fab (006 PSMA Fab); assay: phage ELISA: clonal phage supernatant on biotinylated PSMA Fab captured on neutravidin plate, blocking buffer alone, anti-M13-HRP detection
Description: as §1

006 PSMA Fab [5] = molecular target: T3, 006 PSMA Fab; assay: clonal phage ELISA on captured PSMA Fab pre-incubated with PSMA antigen as competitor, anti-M13 HRP detection;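 further: crude clonal phage supernatants tested by ELISA, wells first treated with blocking buffer plus PSMA antigen, bound phage read out via HRP-linked anti-M13 antibody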
T3 construct: In the panning ELISA the PSMA Fab was biotinylated and captured on neutravidin coated plates; also called Anti-PSMA Fab; anti-PSMA Fab
Description: as §1

006 PSMA Fab [6] = molecular target: T3, 006 PSMA Fab; assay: clonal phage ELISA on biotinylated PSMA Fab captured on neutravidin plates, anti-M13 HRP detection;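 further: crude clonal phage supernatants tested, before phage were added, wells were pretreated with PSMA antigen in blocking buffer or with blocking buffer only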
Description: as §1

006 PSMA Fab [7] = molecular target: T4, 006 PSMA Fab (biotinylated (site not stated)); assay: clonal phage ELISA, biotinylated PSMA Fab on neutravidin plate, anti-M13 HRP detection, no PSMA antigen
T4 construct: Biotinylated PSMA Fab captured on neutravidin coated plates in the clonal phage ELISA; also called Anti-PSMA Fab; anti-PSMA Fab

006 PSMA Fab [8] = molecular target: T4, 006 PSMA Fab; assay: clonal phage ELISA, biotinylated PSMA Fab on neutravidin plate, anti-M13 HRP detection; competitor PSMA antigen
Description: as §1

Binder	Phage binding ELISA signal, Anti-PSMA Fab in presence of PSMA (PSMA Fab (006 PSMA Fab) [3])	Phage binding ELISA signal, Anti-PSMA Fab (PSMA Fab (006 PSMA Fab) [4])	Phage binding ELISA signal, Anti-PSMA Fab in the presence of PSMA antigen (006 PSMA Fab [5])	Phage binding ELISA signal, Anti-PSMA Fab (006 PSMA Fab [6])	further results
LEKACVPQWMCYGL [Phage-3070]	–	–	–	–	Phage binding ELISA signal, Anti-PSMA Fab (006 PSMA Fab [1]): 2.13; Phage binding ELISA signal, Anti-PSMA Fab with PSMA antigen (006 PSMA Fab [2]): 0.0938
EWMKCVPLWMCEGI [Phage-3080 (peptide-180 library clone)]	0.0802	2.11	–	–	–
EHILCRPVWMCEGF [Phage-3098]	–	–	0.101	2.09	–
LDAMCRPLWMCSGF [Phage-3084 (peptide-180 library clone)]	0.0799	2.11	–	–	–
GAMVCKPAWMCQGF [Phage-3094]	–	–	0.0731	2.1	–
VDLICRPAWMCSGF [Phage-3087 (peptide-180 library clone)]	0.0726	2.1	–	–	–
TYMMCVPEWMCQGF [Phage-3078 (peptide-180 library clone)]	0.101	2.11	–	–	–
VERSCVPSWMCYGF [Phage-3066]	–	–	–	–	Phage binding ELISA signal, Anti-PSMA Fab (006 PSMA Fab [1]): 2.14; Phage binding ELISA signal, Anti-PSMA Fab with PSMA antigen (006 PSMA Fab [2]): 0.0806
HLMACKPAWMCLGL [Phage-3079 (peptide-180 library clone)]	0.135	2.11	–	–	–
GMVRCVPQWMCVGF [Phage-3065]	–	–	–	–	Phage binding ELISA signal, Anti-PSMA Fab (006 PSMA Fab [1]): 2.14; Phage binding ELISA signal, Anti-PSMA Fab with PSMA antigen (006 PSMA Fab [2]): 0.111
GQNLCIPSWMCEGF [Phage-3083 (peptide-180 library clone)]	0.08	2.11	–	–	–
DGPLCVPQWMCLWL [Phage-3082 (peptide-180 library clone)]	0.0699	2.11	–	–	–
VEPYCKPAWMCTGF [Phage-3093]	–	–	0.11	2.1	–
QGRVCEPSWMCTGF [Phage-3096]	–	–	0.0561	2.09	–
ILPQCVPAWMCSGF [Phage-3101]	–	–	0.0784	2.09	–
SPYFCIPAWMCHGF [Phage-3071]	–	–	–	–	Phage binding ELISA signal, Anti-PSMA Fab (006 PSMA Fab [1]): 2.13; Phage binding ELISA signal, Anti-PSMA Fab with PSMA antigen (006 PSMA Fab [2]): 0.121
LLAECVAAWMCSGF [Phage-3067]	–	–	–	–	Phage binding ELISA signal, Anti-PSMA Fab (006 PSMA Fab [1]): 2.13; Phage binding ELISA signal, Anti-PSMA Fab with PSMA antigen (006 PSMA Fab [2]): 0.0712
DEWICRPAWMCQGF [Phage-3076 (peptide-180 library clone)]	0.0632	2.12	–	–	–
FHIMCQPEWMCLGF [Phage-3116]	–	–	–	–	phage binding ELISA signal (006 PSMA Fab [7]): 2.08; phage binding ELISA signal with PSMA antigen present (006 PSMA Fab [8]): 0.129
ISPVCIPSWMCLGL [Phage-3069]	–	–	–	–	Phage binding ELISA signal, Anti-PSMA Fab (006 PSMA Fab [1]): 2.13; Phage binding ELISA signal, Anti-PSMA Fab with PSMA antigen (006 PSMA Fab [2]): 0.174

Binder	Phage binding ELISA signal, Anti-PSMA Fab in presence of PSMA (PSMA Fab (006 PSMA Fab) [3])	Phage binding ELISA signal, Anti-PSMA Fab (PSMA Fab (006 PSMA Fab) [4])	Phage binding ELISA signal, Anti-PSMA Fab in the presence of PSMA antigen (006 PSMA Fab [5])	Phage binding ELISA signal, Anti-PSMA Fab (006 PSMA Fab [6])	further results
TASWCKPGGACKGF [Phage-3074 (peptide-180 library clone)]	0.0801	2.12	–	–	–
YEQLCKPLWMCQGF [Phage-3075 (peptide-180 library clone)]	0.0628	2.12	–	–	–
VSIMCTPLWMCEGF [Phage-3090]	–	–	0.0782	2.1	–
LEHMCRPSWMCTGF [Phage-3085 (peptide-180 library clone)]	0.0798	2.1	–	–	–
TDHLCVPSWMCLGF [Phage-3081 (peptide-180 library clone)]	0.0801	2.11	–	–	–
PMPVCVPMWMCYGF [Phage-3100]	–	–	0.0842	2.09	–
MERMCRPAWMCTAF [Phage-3097]	–	–	0.107	2.09	–
LSHMCRPAWMCEGF [Phage-3068]	–	–	–	–	Phage binding ELISA signal, Anti-PSMA Fab (006 PSMA Fab [1]): 2.13; Phage binding ELISA signal, Anti-PSMA Fab with PSMA antigen (006 PSMA Fab [2]): 0.0938
YDFRCIPSWMCMGI [Phage-3095]	–	–	0.0693	2.1	–
IMMRCEPVWMCEGF [Phage-3072]	–	–	–	–	Phage binding ELISA signal, Anti-PSMA Fab (006 PSMA Fab [1]): 2.13; Phage binding ELISA signal, Anti-PSMA Fab with PSMA antigen (006 PSMA Fab [2]): 0.118
TELACKPLWMCNGF [Phage-3091]	–	–	0.0691	2.1	–
EFPLCVPAWMCSGF [Phage-3115]	–	–	–	–	phage binding ELISA signal (006 PSMA Fab [7]): 2.08; phage binding ELISA signal with PSMA antigen present (006 PSMA Fab [8]): 0.0859
TGAICVPEWMCMGF [Phage-3092]	–	–	0.0934	2.1	–
WLMRCEPQWMCAGF [Phage-3073]	–	–	–	–	Phage binding ELISA signal, Anti-PSMA Fab (006 PSMA Fab [1]): 2.12; Phage binding ELISA signal, Anti-PSMA Fab with PSMA antigen (006 PSMA Fab [2]): 0.131
VVPRCEPMWMCQGF [Phage-3088]	–	–	0.0982	2.1	–
TDQLCKPLWMCTGF [Phage-3089]	–	–	0.0815	2.1	–
MGPVCKPAWMCLEF [Phage-3099]	–	–	0.109	2.09	–
VNHLCKPTWMCAGF [Phage-3077 (peptide-180 library clone)]	0.0765	2.12	–	–	–
FWAQCVPPWMCSGF [Phage-3086 (peptide-180 library clone)]	0.199	2.1	–	–	–
